Assay [1] addresses T1, full length human PDGFR-beta on HEK293 cells (human, UniProt P09619 33-1106). In words: cell-based or functional assay.
For assay [2], the target named is T2, hPDGFRb.mmh (human, UniProt P09619 33-531).
T2 construct: Soluble monomeric construct; also called soluble human PDGFR-beta.mmh
In words: Octet BLI cross-competition, 25 C; hPDGFRb.mmh on anti-Penta-His tips pre-saturated with mAb-1 H4H3094P (row 5). On the procedure:
(§1) A cross-competition assay was conducted to assess the ability of select antibodies to compete with one another for binding to human PDGFR-beta. […] Each PDGFR-beta.mmh-coated sensor tip was saturated for 5 min with a first anti-PDGFR-beta antibody (Mab #1; 50 μg/mL). Next, each sensor tip was saturated with a solution of a second anti-PDGFR-beta antibody (Mab #2). The real time response of Mab #2 binding to PDGR-beta.mmh pre-complexed with Mab #1 was then monitored. All assays were performed at 25° C. with a flow rate of 1000 rpm on an Octet RED384 biosensor in Octet HBST buffer according to manufacturer's instructions (ForteBio Corp., Menlo Park, Calif.). Results are illustrated in FIG. 2.

Assay [3] has as its target T2, hPDGFRb.mmh. In words: Octet BLI cross-competition, 25 C; hPDGFRb.mmh on anti-Penta-His tips pre-saturated with mAb-1 H4H3107S (row 7). How it is done:
as §1
On the technique in general: BLI is a label-free optical method that tracks binding on a fibre tip over time.

In assay [4] the target is T2, hPDGFRb.mmh. In words: Octet BLI cross-competition, 25 C; hPDGFRb.mmh on anti-Penta-His tips pre-saturated with mAb-1 Control I (row 1). How it is done:
as §1

In assay [5] the target is T2, hPDGFRb.mmh. In words: Octet BLI cross-competition, 25 C; hPDGFRb.mmh on anti-Penta-His tips pre-saturated with mAb-1 H4H3310N (row 9). On the procedure: as §1
Assay [6] has as its target T2, hPDGFRb.mmh. In words: Octet BLI cross-competition, 25 C; hPDGFRb.mmh on anti-Penta-His tips pre-saturated with mAb-1 H4H3365N (row 2). How it is done:
as §1

Assay [7] deals with T1, full length human PDGFR-beta on HEK293 …. In words: cell-based or functional assay. The source holds these as a separate data set.
Assay [8] addresses T2, hPDGFRb.mmh. In words: blocking ELISA, biot-hPDGFRb.mmh to coated PDGF-BB. (An ELISA detects its analyte on a solid surface through an enzyme-linked reagent.)
Target sequence in this assay (P09619 other isoform, or with tags, fused parts or gaps): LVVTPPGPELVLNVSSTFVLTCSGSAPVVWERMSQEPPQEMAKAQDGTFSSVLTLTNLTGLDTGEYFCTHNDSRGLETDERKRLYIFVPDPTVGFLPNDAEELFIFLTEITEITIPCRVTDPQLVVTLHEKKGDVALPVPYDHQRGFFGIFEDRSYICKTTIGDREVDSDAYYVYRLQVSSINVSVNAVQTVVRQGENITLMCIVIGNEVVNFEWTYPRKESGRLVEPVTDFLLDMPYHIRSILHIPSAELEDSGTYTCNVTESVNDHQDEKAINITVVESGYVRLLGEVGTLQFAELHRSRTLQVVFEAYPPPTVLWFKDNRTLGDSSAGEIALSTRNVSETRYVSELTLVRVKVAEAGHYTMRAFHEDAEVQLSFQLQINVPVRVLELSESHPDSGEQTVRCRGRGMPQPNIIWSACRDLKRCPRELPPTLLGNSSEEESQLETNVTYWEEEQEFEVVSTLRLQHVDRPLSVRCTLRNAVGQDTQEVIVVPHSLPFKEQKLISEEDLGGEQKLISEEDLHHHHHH
Assay [9] addresses T3, human PDGFRb.hFc (human).
T3 construct: Soluble dimeric construct with human Fc; also called hPDGFRb.hFc
In words: SPR, mAb captured, 37 C. How it is done: (§2) Antibodies, expressed as either mouse Fc (prefix H1M; H2M) or human Fc (prefix H4H), were captured on their respective anti-Fc sensor surfaces (Mab capture format). […] Kinetic association (kₐ) and dissociation (kd) rate constants were determined by processing and fitting the data to a 1:1 binding model using Scrubber 2.0 curve fitting software.

Assay [10] deals with T4, Macaca fascicularis PDGFRb.mmh (Macaca fascicularis).
T4 construct: Soluble monomeric construct; also called mfPDGFRb.mmh
T4 chain: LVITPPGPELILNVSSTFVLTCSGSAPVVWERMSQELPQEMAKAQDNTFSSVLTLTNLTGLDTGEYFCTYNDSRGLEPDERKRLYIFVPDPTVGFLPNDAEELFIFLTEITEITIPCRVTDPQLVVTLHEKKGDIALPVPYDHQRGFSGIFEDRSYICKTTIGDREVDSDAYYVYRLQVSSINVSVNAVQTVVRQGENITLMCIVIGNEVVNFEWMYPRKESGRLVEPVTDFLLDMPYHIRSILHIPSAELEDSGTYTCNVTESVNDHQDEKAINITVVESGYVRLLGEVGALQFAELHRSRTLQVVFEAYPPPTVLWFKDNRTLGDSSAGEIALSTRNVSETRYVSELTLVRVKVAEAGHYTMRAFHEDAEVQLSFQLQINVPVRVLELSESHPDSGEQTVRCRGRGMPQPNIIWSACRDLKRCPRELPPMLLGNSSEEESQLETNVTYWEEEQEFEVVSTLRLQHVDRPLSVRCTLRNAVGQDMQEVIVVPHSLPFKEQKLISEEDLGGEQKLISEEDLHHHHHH
In words: SPR, mAb captured, 37 C. On the procedure:
as §2
A general note: Surface plasmon resonance follows binding to a sensor surface in real time, without labels.

In assay [11] the target is T2, hPDGFRb.mmh. In words: SPR, mAb captured, 37 C. How it is done: as §2
Target sequence in this assay (P09619 other isoform, or with tags, fused parts or gaps): as the sequence (P09619 other isoform, or with tags, fused parts or gaps) above
Assay [12] concerns the target T2, hPDGFRb.mmh. In words: Octet BLI cross-competition, 25 C; hPDGFRb.mmh on anti-Penta-His tips pre-saturated with mAb-1 H4H3305N (row 8). How it is done: as §1
The target of assay [13] is T2, hPDGFRb.mmh. In words: Octet BLI cross-competition, 25 C; hPDGFRb.mmh on anti-Penta-His tips pre-saturated with mAb-1 H4H3374N (row 3). How it is done: as §1
The target of assay [14] is T3, human PDGFRb.hFc. In words: SPR, mAb captured, 25 C. On the procedure: as §2
Assay [15] has as its target T4, Macaca fascicularis PDGFRb.mmh. In words: SPR, mAb captured, 25 C. How it is done:
as §2

The target of assay [16] is T2, hPDGFRb.mmh. In words: SPR, mAb captured, 25 C. On the procedure:
as §2
Target sequence in this assay (P09619 other isoform, or with tags, fused parts or gaps): as the sequence (P09619 other isoform, or with tags, fused parts or gaps) above

Assay [17] addresses T2, hPDGFRb.mmh. In words: Octet BLI cross-competition, 25 C; hPDGFRb.mmh on anti-Penta-His tips pre-saturated with mAb-1 H4H3099S (row 6). On the procedure:
as §1

A further assay deals with human PDGF-BB (human, UniProt P01127 82-190). In words: SPR (Biacore 3000), 30 nM ligand over hPDGFRb.mFc captured by anti-mouse Fc, no antibody. From the text:
Real-time binding response was monitored throughout the course of the assay and was compared to the binding response measured when PDGF ligand was applied over the derivatized captured control surface in the absence of captured antibody.

We go through 2 molecules from US20170210813A1 (Regeneron, published 2017).

T1 sequence (P09619 33-1106 limits assumed): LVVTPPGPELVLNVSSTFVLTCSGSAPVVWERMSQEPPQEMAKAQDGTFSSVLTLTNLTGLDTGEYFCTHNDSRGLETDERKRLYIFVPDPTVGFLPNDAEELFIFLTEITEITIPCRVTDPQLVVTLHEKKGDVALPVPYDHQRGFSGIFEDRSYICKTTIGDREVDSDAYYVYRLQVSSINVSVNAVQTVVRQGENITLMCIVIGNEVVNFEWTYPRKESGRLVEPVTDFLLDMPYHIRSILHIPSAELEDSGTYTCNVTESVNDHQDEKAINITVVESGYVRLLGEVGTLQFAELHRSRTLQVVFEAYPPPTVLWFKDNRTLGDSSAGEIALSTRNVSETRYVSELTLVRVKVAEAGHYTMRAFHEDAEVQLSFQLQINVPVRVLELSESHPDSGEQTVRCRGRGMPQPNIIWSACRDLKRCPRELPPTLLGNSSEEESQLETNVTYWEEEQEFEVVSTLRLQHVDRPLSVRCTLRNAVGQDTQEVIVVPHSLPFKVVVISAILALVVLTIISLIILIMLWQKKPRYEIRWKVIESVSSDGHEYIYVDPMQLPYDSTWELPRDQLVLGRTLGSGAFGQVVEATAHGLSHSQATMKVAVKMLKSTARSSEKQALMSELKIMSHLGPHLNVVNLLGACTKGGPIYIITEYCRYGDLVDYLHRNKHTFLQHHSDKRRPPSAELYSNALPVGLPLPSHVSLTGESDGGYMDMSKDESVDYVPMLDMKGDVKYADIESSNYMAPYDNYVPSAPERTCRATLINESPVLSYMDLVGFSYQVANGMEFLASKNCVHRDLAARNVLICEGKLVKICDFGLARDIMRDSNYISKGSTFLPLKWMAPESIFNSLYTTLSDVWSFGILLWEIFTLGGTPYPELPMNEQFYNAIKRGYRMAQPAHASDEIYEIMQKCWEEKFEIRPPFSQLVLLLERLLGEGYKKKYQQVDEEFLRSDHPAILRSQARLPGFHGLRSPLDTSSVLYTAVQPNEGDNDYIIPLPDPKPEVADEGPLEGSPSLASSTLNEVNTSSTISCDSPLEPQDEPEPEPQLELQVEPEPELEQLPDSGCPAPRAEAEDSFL
Chain of human PDGF-BB (P01127 82-190 limits assumed): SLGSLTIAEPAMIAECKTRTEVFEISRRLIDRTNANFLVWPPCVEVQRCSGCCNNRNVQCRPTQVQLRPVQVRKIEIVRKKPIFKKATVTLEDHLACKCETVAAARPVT

B1: H4H3103S (antibody, human IgG4, V domains shown)
VH: EVQLLQSGGGLVQPGGSLRLSCAASGFTFSHYWMSWVRQGPGKGLEWVATIKKDGSESYYVDSVRGRFTISRDNAKNSLYLQMNSLRTEDTAVYYCARDIVTPNVGYYFGMDVWGQGTTVTVSS
VL: DIQMTQSPSTLSASVGDRVTITCRASQSISSWLSWYQQKPGKAPKLLIYMASTLESGVPSRFSGSGSGTDFTLTITSLQPDDFATYYCQQSNSYSRTFGHGTKLEIK
notes: human IgG4 Fc (H4H prefix)
In the case of B1, the “IC50, blocking PDGF-BB (250 pM) activation, SRE-luciferase” value in assay [1] amounted to 2e-10 M. Besides, the “IC50, blocking PDGF-DD (400 pM) activation, SRE-luciferase” value in assay [1] is 2.6e-10 M. The “Response of mAb-2 Binding to hPDGFRβ.mmh Pre-Complexed with mAb-1 (nm)” value in the assay with hPDGFRb.mmh [2] was 0 nm; in the assay with hPDGFRb.mmh [3], 0.24 nm; with hPDGFRb.mmh [4], -0.01 nm; with hPDGFRb.mmh [5] it was 0.25 nm; in the assay with hPDGFRb.mmh [6], 0.02 nm; with hPDGFRb.mmh [12], 0.26 nm. Further, the “Response of mAb-2 Binding to hPDGFRβ.mmh Pre-Complexed with mAb-1 (nm)” value with hPDGFRb.mmh [13] amounted to 0.01 nm; in the assay with hPDGFRb.mmh [17], 0.26 nm. For the same molecule, in assay [7], the “Percent Internalization (Relative to Control I)” value was found to be 87%. In addition, the “% Maximum Blocking” value with hPDGFRb.mmh [8] amounted to 90%. The same molecule yielded an IC50 in the assay with hPDGFRb.mmh [8] of 0.24 nM. Further, the Kd with human PDGFRb.hFc [9] turned out to be 0.405 nM; in assay [10], 10.2 nM; in the assay with hPDGFRb.mmh [11], 10.1 nM; in the assay with human PDGFRb.hFc [14] it was 0.264 nM; in [15] it was 3.24 nM; in the assay with hPDGFRb.mmh [16] it was 3.13 nM. Further, the koff in the assay with human PDGFRb.hFc [9] is 0.000306 s⁻¹; in assay [10] it was 0.00556 s⁻¹; with hPDGFRb.mmh [11], 0.00497 s⁻¹; with human PDGFRb.hFc [14] it was 0.000164 s⁻¹; in assay [15], 0.00116 s⁻¹; with hPDGFRb.mmh [16], 0.00105 s⁻¹. Further, the kon was determined as 757000 M⁻¹ s⁻¹ with human PDGFRb.hFc [9]; 544000 M⁻¹ s⁻¹ in [10]; 492000 M⁻¹ s⁻¹ in the assay with hPDGFRb.mmh [11]; 621000 M⁻¹ s⁻¹ with human PDGFRb.hFc [14]; 359000 M⁻¹ s⁻¹ in assay [15]; 335000 M⁻¹ s⁻¹ with hPDGFRb.mmh [16]. Further, the t1/2 was found to be 38 min with human PDGFRb.hFc [9]; 2 min in assay [10]; 2 min in the assay with hPDGFRb.mmh [11]; 70 min in the assay with human PDGFRb.hFc [14]; 10 min in assay [15]; 11 min in the assay with hPDGFRb.mmh [16].

B2: human PDGFRb.mFc (Fc fusion)
chain: LVVTPPGPELVLNVSSTFVLTCSGSAPVVWERMSQEPPQEMAKAQDGTFSSVLTLTNLTGLDTGEYFCTHNDSRGLETDERKRLYIFVPDPTVGFLPNDAEELFIFLTEITEITIPCRVTDPQLVVTLHEKKGDVALPVPYDHQRGFFGIFEDRSYICKTTIGDREVDSDAYYVYRLQVSSINVSVNAVQTVVRQGENITLMCIVIGNEVVNFEWTYPRKESGRLVEPVTDFLLDMPYHIRSILHIPSAELEDSGTYTCNVTESVNDHQDEKAINITVVESGYVRLLGEVGTLQFAELHRSRTLQVVFEAYPPPTVLWFKDNRTLGDSSAGEIALSTRNVSETRYVSELTLVRVKVAEAGHYTMRAFHEDAEVQLSFQLQINVPVRVLELSESHPDSGEQTVRCRGRGMPQPNIIWSACRDLKRCPRELPPTLLGNSSEEESQLETNVTYWEEEQEFEVVSTLRLQHVDRPLSVRCTLRNAVGQDTQEVIVVPHSLPFKEPRGPTIKPCPPCKCPAPNLLGGPSVFIFPPKIKDVLMISLSPIVTCVVVDVSEDDPDVQISWFVNNVEVHTAQTQTHREDYNSTLRVVSALPIQHQDWMSGKEFKCKVNNKDLPAPIERTISKPKGSVRAPQVYVLPPPEEEMTKKQVTLTCMVTDFMPEDIYVEWTNNGKTELNYKNTEPVLDSDGSYFMYSKLRVEKKNWVERNSYSCSVVHEGLHNHHTTKSFSRTPGK
notes: Soluble dimeric construct with mouse Fc; also called hPDGFRb.mFc; soluble human PDGFR-beta.mFc
B2: the binding result with human PDGF-BB was “binds”.

As a reminder, the IC50 is the concentration that gives 50% inhibition. A low value points to higher potency. A word on the Kd: it is the constant that tells how readily two partners part at equilibrium. A lower Kd goes with higher affinity. The term koff denotes the rate constant with which the complex falls apart. By kon is commonly meant the second-order rate constant of association. Read a high kon as fast association.
